Where a chain is given by its changes, count along the chain named. Names may count otherwise. “Also recorded” adds a separate entry of the source.
B1: Rb R698W: Rb mutant from COSMIC database (protein, UniProt P06400 2-928, looked up, variant R698W)
Retinoblastoma-associated …: PPKTPRKTAATAAAAAAEPPAPPPPPPPEEDPEQDSGPEDLPLVRLEFEETEEPDFTALCQKLKIPDHVRERAWLTWEKVSSVDGVLGGYIQKKKELWGICIFIAAVDLDEMSFTFTELQKNIEISVHKFFNLLKEIDTSTKVDNAMSRLLKKYDVLFALFSKLERTCELIYLTQPSSSISTEINSALVLKVSWITFLLAKGEVLQMEDDLVISFQLMLCVLDYFIKLSPPMLLKEPYKTAVIPINGSPRTPRRGQNRSARIAKQLENDTRIIEVLCKEHECNIDEVKNVYFKNFIPFMNSLGLVTSNGLPEVENLSKRYEEIYLKNKDLDARLFLDHDKTLQTDSIDSFETQRTPRKSNLDEEVNVIPPHTPVRTVMNTIQQLMMILNSASDQPSENLISYFNNCTVNPKESILKRVKDIGYIFKEKFAKAVGQGCVEIGSQRYKLGVRLYYRVMESMLKSEEERLSIQNFSKLLNDNIFHMSLLACALEVVMATYSRSTSQNLDSGTDLSFPWILNVLNLKAFDFYKVIESFIKAEGNLTREMIKHLERCEHRIMESLAWLSDSPLFDLIKQSKDREGPTDHLESACPLNLPLQNNHTAADMYLSPVRSPKKKGSTTRVNSTANAETQATSAFQTQKPLKSTSLSLFYKKVYRLAYLRLNTLCERLLSEHPELEHIIWTLFQHTLQNEYELMRDWHLDQIMMCSMYGICKVKNIDLKFKIIVTAYKDLPHAVQETFKRVLIKEEEYDSIIVFYNSVFMQRLKTNILQYASTRPPTLSPIPHIPRSPYKFPSSPLRIPGGNIYISPLKSPYKISEGLPTPTKMTPRSRILVSIGESFGTSEKFQKINQMVCNSDRVLKRSAEGSNPPKPLKKLRFDIEGSDEADGSKHLPGESKFQQKLAEMTSTRTRMQKQKMNDSMDTSNKEEK
B2: Rb E440K: Rb mutant from COSMIC database (protein, UniProt P06400 2-928, looked up, variant E440K)
Retinoblastoma-associated …: B1 Retinoblastoma-associated … with E439K, W697R
B3: Rb L665R: Rb mutant from COSMIC database (protein, UniProt P06400 2-928, looked up, variant L665R)
Retinoblastoma-associated …: B1 Retinoblastoma-associated … with L664R, W697R
B4: Rb R621S: Rb mutant from COSMIC database (protein, UniProt P06400 2-928, looked up, variant R621S)
Retinoblastoma-associated …: B1 Retinoblastoma-associated … with R620S, W697R
B5: Rb V654M: Rb mutant from COSMIC database (protein, UniProt P06400 2-928, looked up, variant V654M)
Retinoblastoma-associated …: B1 Retinoblastoma-associated … with V653M, W697R
B6: Rb I724N: Rb mutant from COSMIC database (protein, UniProt P06400 2-928, looked up, variant I724N)
Retinoblastoma-associated …: B1 Retinoblastoma-associated … with W697R, I723N
B7: Rb R798W: Rb mutant from COSMIC database (protein, UniProt P06400 2-928, looked up, variant R798W)
Retinoblastoma-associated …: B1 Retinoblastoma-associated … with W697R, R797W
B8: Rb R798Q: Rb mutant from COSMIC database (protein, UniProt P06400 2-928, looked up, variant R798Q)
Retinoblastoma-associated …: B1 Retinoblastoma-associated … with W697R, R797Q

System: Rb/E2F1-Dp-1 complex
Assay: CDK6 mutant activity / drug resistance in NanoBiT assay, stable cell line #11
Format: cell-based, human
Conditions: CDK6 mutants, compared to the WT (being 100%)
Description: A linear expression cassette of mutated CDK4 or CDK6 was generated by PCR mediated overlapping extension method. A pair of forward and reverse primers containing the targeted mutations was designed. The mutated codon was located in the middle of a primer flanked by 18-21 nucleotides on each side. Two PCRs (named as PCR #1 and PCR #2 in FIG. 1) were performed using UF-CMV forward and mutated reverse primers, or mutated forward and BGH-UR primers. The PCR products were cleaned up by ExoSAP-IT® (Affymetrix) to remove unconsumed dNTPs and primers. The treated PCR products were mixed together followed by dilution with water. A second round of PCR was performed using the diluted PCR mixture, and the UF and UR primers (FIG. 1). The amplified products were gel-purified. The DNA concentration was quantitated by the optical density at 260 nm using Nanodrop. The targeted mutations were incorporated in the CDK4 or CDK6 genes during the PCR mediated overlapping extension method. The introduced mutations were confirmed by the DNA sequencing.
To examine the ability of the assay to detect variants in CDK4 or CDK6 that affect function, kinase dead mutants and COSMIC (Catalogue Of Somatic Mutations in cancer) unknown mutants were created. For comparison, hyperactive CDK4 or CDK6 mutants known to be hyperactive due to less binding to natural inhibitor p16 were also created. The mutations in CDK4 or CDK6 were created by site-directed mutagenesis. WT or mutated CDK4 or CDK6 along with the CyclinD1 and SB-Rb were co-transfected, under similar conditions as previously indicated (see FIG. 9).
Computer modeling was used to reveal the drug-binding pocket and predict drug-resistant mutants. The mutations in CDK4 and CDK6 were created by site-directed mutagenesis. WT or mutated CDK4 or CDK6 along with the CyclinD1 and SB-Rb was co-transfected into #11 cell line, under the same conditions as previously indicated. […] Dose response curves are presented on FIG. 13A and FIG. 13B. Activity of other mutants was very similar to the WT or KD.
CDK4 and CDK6 mutants with known function and unknown function taken from the COSMIC database were analyzed in the present assay and are summarized in Table 7A and Table 7B. The mutants were classified according to their activity. Table 7A and Table 7B also show the number of counts per mutant in the COSMIC database, type of cancer, and luciferase activity compared to the WT (being 100%).

| Molecule | Luc activity (/wt) |
| --- | --- |
| CDK6 R220S: CDK6 mutant from COSMIC database | 271% |
| CDK6 K43M: CDK6 mutant, literature kinase dead | 468% |
| CDK6 R220C: CDK6 mutant from COSMIC database | 164% |
| CDK6 R144H: CDK6 mutant from COSMIC database | 267% |
| CDK6 D163N: CDK6 mutant, literature kinase dead | 408% |
| CDK6 P199L: CDK6 mutant from COSMIC database | 565% |

Same assay, conditions: predicted drug resistant CDK6 mutants, relative to WT

| Molecule | Luc. activity (/wt) |
| --- | --- |
| CDK6 V27A: predicted drug resistant CDK6 mutant | 149% |
| CDK6 L152V: predicted drug resistant CDK6 mutant | 114% |
| CDK6 I19L: predicted drug resistant CDK6 mutant | 129% |
| CDK6 D104N: predicted drug resistant CDK6 mutant | 138% |
| CDK6 A41V: predicted drug resistant CDK6 mutant | 132% |
| CDK6 F98I: predicted drug resistant CDK6 mutant | 176% |
| CDK6 H100Y: predicted drug resistant CDK6 mutant | 126% |
| CDK6 T107K: predicted drug resistant CDK6 mutant | 95% |

Same assay, conditions: predicted drug resistant CDK6 mutants; Palbociclib/Ribociclib

| Molecule | Observed drug resist. |
| --- | --- |
| CDK6 T107K: predicted drug resistant CDK6 mutant | showed drug resistance; also recorded: Resistant |

System: E2F1/Dp-1 heterodimer
Assay: Rb activity assay (LB-Rb with E2F1-SB, DP1 split luciferase)
Format: cell-based, human
Parameters: key to Observed activity: N—no activity; A—active as WT; R—reduced activity compared to the WT
Conditions: Rb mutants
Text: An assay that could measure the interaction between Rb, E2F1, and Dp-1 was developed. Since Dp-1 forms a heterodimer with E2F1 and that interaction is crucial for Rb/E2F1 binding, the assay was comprised of three components. When two proteins (Rb and E2F1) are in close proximity or in complex, a light signal was observed. For the purposes of the current assay, split-luciferase complementation was used to measure the interaction between Rb and E2F1. The NanoBiT assay system by Promega (Madison, Wis.; Dixon et al., 2015, ACS ChemBiol) was used in our split luciferase complementation design.
FIG. 16 depicts the design of a signal system to measure Rb activity. Under basal conditions inside the cell, Rb was active and interacted with the E2F1/Dp-1 heterodimer. For this assay design, cDNAs of Rb linked to different parts of the luciferase protein, either termed as the “Small BiT” (SB), or “Large BiT” (LB) and E2F1 linked to the opposite portion of the luciferase protein were created. When Rb and E2F1/Dp-1 bind, the NanoBiT parts of the luciferase form a complex and emitted a light signal when the luciferase (NanoGlo) substrate was added.
Using the described assay design, HEK293 CDK DKO cells were transiently transfected with different combinations of SB-Rb or LB-Rb and E2F1-LB or E2F1-SB components containing C-terminal and N-terminal constructs (FIG. 17). Relative intensities generated are presented in FIG. 17 as relative luminescence units (RLU). The data represents a sample experiment where each condition was performed in triplicate and represent mean+SD.
The LB-Rb and E2F1-SB with Dp-1 were tested for Rb activity using known Rb null mutants: R661W and C706F (FIG. 18A). […] Rb in-frame (del35) and out-of frame (del1) deletion mutants (FIG. 18B) were constructed and the observed luciferase activity was close to 0, in particular for del1 mutant, because Rb-E2F1 binding was destroyed.
Within the provided assay design, stable cell lines using the HEK293 CDK DKO cell parent line expressing E2F1-SB and Dp-1 were produced. After selection and screening for positive clones using an LB-Rb-mediated increase in signal, four stable single cell clones were selected and evaluated using different Rb mutants (FIGS. 19A and 19B). The response to E2F1 interaction was also checked by using the plasmid and linear form of DNA. Cell line #37 was selected for all our experiments in assay development due to its favorable response.
The conditions of the assay were further optimized by analyzing different cell numbers and Rb concentrations (FIG. 20). Based on the data, it was decided to use 0.2×10^6 cells/ml and 70 ng of DNA in the assay.
Known null and out/in-frame deletion mutants disrupting E2F1 binding and unknown COSMIC mutants were created to examine the ability of the assay to detect variants in Rb that affect function. We transfected WT or mutated Rb using similar conditions as previously indicated (FIG. 20). […] In addition, the null C706F and deletion (del1) mutants presented a signal close to zero as expected for loss of function mutants that disrupt E2F1 interaction. […] This confirmed that the assay was capable of determining the relative activity level of Rb mutants. The data is provided in Luminescence (RLU) of a single experiment with each condition performed in triplicate and represent average+SD.

Sequence of E2F1/Dp-1 heterodimer (Q01094 58-437 limits assumed): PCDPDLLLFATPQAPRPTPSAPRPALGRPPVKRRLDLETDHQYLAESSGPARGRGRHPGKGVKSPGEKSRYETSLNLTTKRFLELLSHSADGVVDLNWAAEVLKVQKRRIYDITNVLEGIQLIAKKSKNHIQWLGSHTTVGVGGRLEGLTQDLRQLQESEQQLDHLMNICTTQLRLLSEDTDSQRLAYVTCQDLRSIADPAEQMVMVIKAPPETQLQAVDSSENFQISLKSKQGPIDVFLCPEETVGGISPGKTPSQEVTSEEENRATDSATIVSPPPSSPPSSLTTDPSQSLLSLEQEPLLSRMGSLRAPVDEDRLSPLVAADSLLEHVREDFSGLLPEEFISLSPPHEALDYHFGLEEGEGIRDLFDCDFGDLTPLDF
Sequence of E2F1/Dp-1 heterodimer (Q14186 whole entry, further chain): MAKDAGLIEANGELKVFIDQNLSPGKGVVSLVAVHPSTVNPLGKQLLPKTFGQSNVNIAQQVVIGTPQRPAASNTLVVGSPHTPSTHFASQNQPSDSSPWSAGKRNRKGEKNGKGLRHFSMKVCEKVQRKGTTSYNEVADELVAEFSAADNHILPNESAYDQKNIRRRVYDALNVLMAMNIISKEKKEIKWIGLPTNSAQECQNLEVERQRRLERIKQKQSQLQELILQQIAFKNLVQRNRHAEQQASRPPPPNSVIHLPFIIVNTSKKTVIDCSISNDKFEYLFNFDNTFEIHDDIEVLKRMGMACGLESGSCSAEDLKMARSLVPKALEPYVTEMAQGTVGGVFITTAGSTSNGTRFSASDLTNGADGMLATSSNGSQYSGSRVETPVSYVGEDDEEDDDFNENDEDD

| Molecule | Observed activity |
| --- | --- |
| B1 | N |
| B2 | R |
| B3 | N |
| B4 | A |
| B5 | A |
| B6 | N |
| B7 | A |
| B8 | A |

Same assay, conditions: Rb mutants, activity relative to WT

| Molecule | % (/wt) |
| --- | --- |
| B1 | 6.4% |
| B2 | 47% |
| B3 | 5% |
| B4 | 124% |
| B5 | 132% |
| B6 | 7.4% |
| B7 | 120% |
| B8 | 92% |
